Results from US11110182B2, “Multifunctional RNA nanoparticles and methods for treating cancer and therapeutic resistant cancer” (University of Cincinnati, priority 2016, dated 2021).

Assays:
[1] = system: HER2-overexpressing BT474 cells; assay: pRNA nanoparticle cellular uptake assay (confocal, flow cytometry), BT474; type: cell-based, human; conditions: for cellular uptake by flow cytometry: BT474, 3 h incubation at 37° C.; for binding and internalization into cells: BT474, AF647-conjugated, 10 μg/mL, confocal microscopy
Method: FIG. 2A) Confocal microscopy analyses of the internalization of AF647-labeled control and pRNA-HER2apt-siMED1 nanoparticles by BT474 cells. Scale bar: 10 μm. FIG. 2B) Flow cytometry assays of the cellular uptake of AF647-labeled control and pRNA-HER2apt-siMED1 nanoparticles by BT474 cells. FIG. 2C) IVIS Lumina live imaging of BT474 orthotopic xenograft mice 24 hrs after i.v. injection of indicated AF647-labeled pRNA nanoparticles (10 mg/Kg). FIG. 2D) Major organs and tumors of above mice were excised and imaged for AF647 fluorescence. FIG. 2E) Frozen tumor sections were examined for localization of AF647-labeled pRNA nanoparticles (red) using confocal microscopy. The blood vessels were stained with anti-CD31 primary antibody and Alexa488-conjugated secondary antibody (green). The nuclei were stained with DAPI (blue). Scale bar: 50 μm. FIG. 2F) The fluorescence intensity of AF647-labeled pRNA nanoparticles (red) in frozen tumor sections was quantified with Image-pro Plus software.
Cell culture. Human breast cancer luciferase-overexpressing BT474 and MDA-MB-231 cells were maintained in DMEM medium (Hyclone, Thermo Scientific) supplemented with 10% fetal bovine serum (FBS, Sigma) and 1% penicillin/streptomycin (Corning) at 37° C. in a humidified atmosphere with 5% CO2.^53 • Generation of pRNA nanoparticles. The two strands of pRNA were synthesized with the DNA templates, which were amplified with overlapping primers (Sigma) by PCR methods, using a T7 promoter-controlled in vitro RNA transcription system as previously described^33 (Table 1). All the CTP and UTP used for synthesis of the pRNA nanoparticles were 2′-fluoro modified, except the control unmodified pRNA nanoparticles used in the stability assays. Following an overnight transcription at 37° C., RNA strands were purified using RNA clean and concentrator kits (ZYMO research) and examined by 8 M urea denatured 8% PAGE gel. pRNA nanoparticles were assembled by mixing the equal molar amounts of p1 and p2 strands and gradually annealing from 90° C. to 20° C. in 1×RNA annealing buffer containing 50 mM Tris-HCl (pH 7.5), 50 mM NaCl and 1 mM EDTA on a PCR machine. […] The hydrodynamic diameter and Tm value of pRNA nanoparticles were determined using dynamic light scattering and TGGE assay, respectively, as previously described.^54 The AFM imaging of the pRNA nanoparticles was performed at the University of Nebraska Medical Center imaging facility as previously reported.^55 Briefly, the pRNA nanoparticles (5 μL) were deposited on APS modified mica ^56 for a total of 2 min of incubation time. […]

MED1 = MED1 protein level by western blots in MDA-MB-231 cells; type: cell-based, human; conditions: MDA-MB-231, transfected, 48 h
Source text: FIG. 8A) HER2 expression in BT474 and MDA-MB-231 cells determined by western blot analyses. FIG. 8B) The binding of AF-647-labeled pRNA-HER2apt-siMED1 and its mutant nanoparticles to MDA-MB-231 and BT474 cells examined by confocal microscopy. Green represents the immunofluorescent staining of HER2, and blue represents nuclear staining with DAPI. FIG. 8C) The internalization of AF647-labeled pRNA nanoparticles by MDA-MB-231 cells examined by confocal microscopy. Green represents the immunofluorescent staining of β-actin. Scale bar: 10 μm. FIG. 8D) The cellular uptake of AF647-labeled pRNA nanoparticles by MDA-MB-231 cells quantified by flow cytometry. FIG. 8E) HER2 expression in BT474 xenograft tumors was examined by western blot analyses. FIG. 8F) MDA-MB-231 cells were incubated directly with (as indicated by-) or transfected with pRNAs using lipofectamine 2000. At 48 h post treatment, MED1 protein levels were determined by western blots.
Cell culture. […] The hydrodynamic diameter and Tm value of pRNA nanoparticles were determined using dynamic light scattering and TGGE assay, respectively, as previously described.^54 The AFM imaging of the pRNA nanoparticles was performed at the University of Nebraska Medical Center imaging facility as previously reported.^55 Briefly, the pRNA nanoparticles (5 μL) were deposited on APS modified mica ^56 for a total of 2 min of incubation time. […]

| Molecule | cellular uptake by flow cytometry [1] | binding and internalization into cells [1] | MED1 protein level after transfection with lipofectamine 2000 (MED1) |
| --- | --- | --- | --- |
| pRNA-HER2apt-siMED1: 3-WJ pRNA nanoparticle bearing a HER2-targeting RNA aptamer and two different MED1 siRNAs; strands p1 SEQ ID NO: 3, p2 SEQ ID NO: 4 (nucleic acid, 2'-F modification; third strand may lack entry; pRNA-HER2apt-siMED1, p1; pRNA-HER2apt-siMED1, p2) chain 1: GGACAGUGAAAGUGAGUCAAAGGAUCAAUCAUGGCCAAAGAUGUUACUUUGAGAGCCUU chain 2: GGCUCUCAAAGUAACAUCUAAGGCCAUGUGUAUGUGGGGGGAGGACGAUGCGGUCUGCUGUGCUUGAUAUGCCCCAGACGACUCGCCCCCCACAUACUUUGUUGAUCCAAUGACUCACUUUCACUGUCCUU | effectively taken up | can bind and be readily internalized | MED1 silencing |
| pRNA-HER2apt^mut-siMED1: control pRNA nanoparticle with mutant HER2 aptamer; strands p1 SEQ ID NO: 5, p2 SEQ ID NO: 6 (nucleic acid, pRNA-HER2apt(mut)-siMED1, p1; pRNA-HER2apt(mut)-siMED1, p2) chain 1: GGACAGUGAAAGUGAGUCAAAGGAUCAAUCAUGGCCAAAGAUGUUACUUUGAGAGCCUU chain 2: GGCUCUCAAAGUAACAUCUAAGGCCAUGUGUAUGUGGGAUGAGGAGUAUGAAGAUACCUGUACUUGAUAUGCCCCAGACGACAUUCCCCCCACAUACUUUGUUGAUCCAAUGACUCACUUUCACUGUCCUU | notably decreased the uptake efficiency | dramatically impaired | MED1 silencing |
